# B1: BMP-7: 35 kDa homodimeric protein of the TGF-β superfamily; FDA-approved agent; human mature chain SEQ ID NO:1/2 (protein, listed as Homo sapiens)
# chain: IRSTGSKQRSQNRSKTPKNQEALRMANVAENSSSDQRQACKKHELYVSFRDLGWQDWIIAPEGYAAYYCEGECAFPLNSYMNATNHAIVQTLVHFINPETVPKPCCAPTQLNAISVLYFDDSSNVILKKYRNMVVRACGCH
# modifications: homodimer; human mature chain of BMP-7 (NCBI Reference Sequence NM_001719.2) comprising peptide from 293-431
# Legend:
# ALK3- fraction of hNEPT = assay: BMP-7 response of ALK3- fraction; assay type: cell-based, human; conditions: qRT-PCR
# Experimental: Magnetic bead-based methods (Miltenyi) were used for the enrichment of ALK3+ cells from hNEPT. Both enriched and negative fractions are subsequently plated and treated with BMP-7 or left untreated (controls).
# The identity of sorted cells is confirmed by IF, and aliquots are cultured in adherent conditions. Single sorted pancreatic cells are notoriously difficult to culture in plastic, which is addressed by using a combination of Matrigel®-coated plates and fully defined media [STEMPRO® (Thermofisher Scientific, Grand Island, N.Y.) or Kubota's Medium® (PhoenixSongs Biologicals Branford, Conn.)]^8,29,48,49 Matrigel® is used to grow multipotent pancreatic cells^50,51. Colonies from dissociated ALK3^+ cells sorted from fresh hNEPT are readily grown in these conditions, and resemble those obtained from the MPD without sorting. The typical “ring” morphology described by others^50,51 is observed when plating ALK3^+ cells in 3D conditions or fibroblast feeder cells.
# nude rat (RNU) grafts = assay: Local BMP-7 delivery to hNEPT or PR2Y1+/ALK3+ cells under kidney capsule of nude rats; assay type: in vivo; conditions: POD +21
# From the text: The nude rat (RNU, Crl:NIH-Foxn1^rnu) is chosen over mice due to the specific BMP-7 local delivery system designed for this purpose, requiring surgical procedures for which a larger animal size would be beneficial. […] The kidney sub-capsular space of rodents is a well-established ectopic site for pancreatic cell (and particularly islet) transplantation^54,55. There are reports of success in the continuous delivery of compounds to pancreatic cells previously implanted under the kidney capsule of rats^38 using Alzet® osmotic pumps that release solution at a rate of 0.5 μl/h for 2 weeks.
# While exocrine and endocrine cells coexist in the pancreas, cultured hNEPT lack native ECM for proper compartmentalization, and acinar secretions may be harmful for endocrine cells^37. Acinar cells present in hNEPT after BMP-7 treatment persist in grafts^17. This observation was hypothesized to be one reason behind the sub-optimal performance of BMP-7-treated hNEPT in vivo (see Example 2). […] The first phase of these studies transplants unfractionated hNEPT (0.5-1×10^7 cells) previously grown for 48h in attachment (prior to BMP-7 treatment) under the kidney capsule of nude rats. […] Rats are euthanized at POD +21 and their grafts analyzed by IF for C-peptide as well as the 15 pancreatic marker panel of Example 8. […]
molecule,measurement,setting,value
B1,response to BMP-7,ALK3- fraction of hNEPT,did not show any response
same,islet-like structures within the graft,"nude rat (RNU) grafts; PR2Y1+/ALK3+ cell graft, BMP-7 by iPRECIO pump",abundant islet-like structures within the graft
same,in vivo β-like cell formation compared to controls,"nude rat (RNU) grafts; unfractionated hNEPT graft, BMP-7 by pump for 14 d",Substantial in vivo β-like cell formation

# Reference: patent US11466255B2, “Methods and compositions for converting non-endocrine pancreatic tissue into insulin-producing cells” (UNIVERSITY OF MIAMI, priority 2015, dated 2022)
